Results from US20240010747A1, “ANTI-MRP4 (ENCODED BY ABCC4 GENE) ANTIBODIES AND USES THEREOF” (Kenjockety Biotechnology, Inc., priority 2020, published 2024).
Values belong to the molecule of their own block, whether it stands above or below them.

How the values were obtained:
[1] = target: T1, human ABCC4 (Homo sapiens, UniProt O15439); test: Flow cytometry (FACS) binding to C6 cells stably transfected to express human ABCC4 (Table 3 study); details: for Human ABCC4 binding: C6 cells stably transfected to express human ABCC4, FACS, Table 3; for binding to human ABCC4 expressed on cell surface: Table 3 study, stated in words
T1 construct: expressed in transfected cells
T1 sequence (O15439 1-1325): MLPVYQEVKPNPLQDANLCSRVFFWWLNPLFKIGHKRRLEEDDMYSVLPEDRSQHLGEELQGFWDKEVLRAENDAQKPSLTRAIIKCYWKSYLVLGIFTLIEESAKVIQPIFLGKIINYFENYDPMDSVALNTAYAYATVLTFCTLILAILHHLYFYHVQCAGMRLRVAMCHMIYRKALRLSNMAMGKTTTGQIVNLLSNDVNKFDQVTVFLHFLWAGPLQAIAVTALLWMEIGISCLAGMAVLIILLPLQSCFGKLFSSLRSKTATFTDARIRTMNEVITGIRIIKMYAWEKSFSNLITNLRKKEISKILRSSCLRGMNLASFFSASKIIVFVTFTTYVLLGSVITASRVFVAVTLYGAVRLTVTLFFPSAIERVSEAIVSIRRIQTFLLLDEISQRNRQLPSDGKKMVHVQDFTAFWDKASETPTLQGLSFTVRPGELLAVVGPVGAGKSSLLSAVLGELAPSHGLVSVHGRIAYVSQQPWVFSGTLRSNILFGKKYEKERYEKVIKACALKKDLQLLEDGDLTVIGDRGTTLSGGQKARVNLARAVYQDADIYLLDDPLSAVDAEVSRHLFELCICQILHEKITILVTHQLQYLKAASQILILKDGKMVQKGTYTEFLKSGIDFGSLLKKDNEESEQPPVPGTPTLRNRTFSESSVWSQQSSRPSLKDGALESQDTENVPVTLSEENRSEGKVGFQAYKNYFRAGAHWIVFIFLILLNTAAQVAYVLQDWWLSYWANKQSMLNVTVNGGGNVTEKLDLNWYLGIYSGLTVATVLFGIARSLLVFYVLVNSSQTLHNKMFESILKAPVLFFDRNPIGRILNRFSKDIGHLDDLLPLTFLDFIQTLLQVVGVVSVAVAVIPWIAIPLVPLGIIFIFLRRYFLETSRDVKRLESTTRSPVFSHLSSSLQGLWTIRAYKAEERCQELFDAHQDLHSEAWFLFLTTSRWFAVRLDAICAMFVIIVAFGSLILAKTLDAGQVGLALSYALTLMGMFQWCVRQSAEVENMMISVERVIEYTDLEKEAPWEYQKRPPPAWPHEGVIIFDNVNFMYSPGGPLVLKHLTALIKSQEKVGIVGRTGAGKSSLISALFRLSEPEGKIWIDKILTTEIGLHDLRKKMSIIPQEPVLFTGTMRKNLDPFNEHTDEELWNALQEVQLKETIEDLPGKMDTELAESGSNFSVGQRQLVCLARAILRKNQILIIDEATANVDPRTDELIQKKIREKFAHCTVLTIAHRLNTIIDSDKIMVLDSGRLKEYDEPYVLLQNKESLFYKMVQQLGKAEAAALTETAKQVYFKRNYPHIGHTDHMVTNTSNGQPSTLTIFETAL
Description: (§1) Binding titration of recombinant antibodies to ABCC4 transfectants was performed by serial dilution of antibodies from about 666 nM. Diluted antibody in flow cytometry buffer was incubated with cells on ice for 30 min. After 2 washes with flow cytometry buffer, bound antibody was detected with PE-labeled F(ab′)2 fragment goat anti-human IgG (Jackson ImmunoResearch) diluted 1:200 in flow cytometry buffer and incubated with cells for 20 min on ice. After 2 washes with flow cytometry buffer fluorescence was measured on an Attune N×T flow cytometer. Data were analyzed with GraphPad Prism 8.0 software to determine EC50's.
(§2) Human embryonic kidney HEK 293T cells and murine C6 (ATCC CCL-107) were transfected with human or cynomolgus ABCC4 cDNA with C-terminal fused FLAG tag in a pMONO-hygro vector with Lipofectamine 3000 (Invitrogen #L3000001). The cells were treated with 0.2 mg/ml and 0.5 mg/ml hygromycin respectively for about 2 weeks while cultivated in DMEM and 10% FBS with 0.2 mg/ml hygromycin and 0.5 mg/ml hygromycin, respectively. The cells were washed with PBS, and stained with […] of anti-FLAG-PE after fixing and permeablization. Clones expressing ABCC4 were single-cell sorted into 200 μl DMEM with 10% FBS using a BD Aria FACS machine and cultivated in 96 well plates using standard techniques in an incubator at 37° C. and 5% CO 2. Two weeks later clones expressing high levels of ABCC4 were screened and amplified.
(§3) Antibody binding to cells was evaluated by flow cytometry. Murine C6 cells stably transfected to express human or cynomolgus ABCC4 were washed once in flow cytometry buffer (PBS+2% FBS+0.02% sodium azide), resuspended at 2×10^6 cells/mL in flow cytometry buffer, and dispensed into 96-well microtiter plates at 0.1 mL/well. Recombinant antibodies were added to cells at 5 ug/mL for initial binding confirmation, or serially diluted from 100 ug/mL in flow cytometry buffer. After incubating cells on ice for 30 min, cells were washed twice with flow cytometry buffer. Bound antibody was detected with PE-labeled F(ab′)2 fragment goat anti-human IgG (Jackson ImmunoResearch) and evaluated on an Attune N×T flow cytometer. EC50 is calculated to be the concentration of antibody that gives half maximal response.
(§4) Table 3 lists the following characteristics of the rat anti-ABCC4 antibodies tested: binding to C6 cells stably transfected to express human ABCC4 measured by FACS and binding to C6 cells stably transfected to express cynomolgus ABCC4 measured by FACS. Negative (−) is defined as maximum response (Rmax(MFI)) below background level. Positive (+) is defined as MFI>1000.

[2] = target: T1, human ABCC4; test: Flow cytometry (FACS) binding to C6 cells stably transfected to express human ABCC4 (different experiment, Table 4); details: for Human ABCC4 binding: C6 cells stably transfected to express human ABCC4, FACS, different experiment, Table 4; for binding to human ABCC4 expressed on cell surface: Table 4 study, stated in words
Description: as §1, §2, §3
(§5) In a different experiment, using a different C6.cC4 cell line, detecting the binding of anti-ABCC4 antibodies to C6 cells stably transfected to express human ABCC4 measured by FACS and to C6 cells stably transfected to express cynomolgus ABCC4 measured by FACS, the results set forth in Table 4 were obtained. Negative (−)=Rmax (MFI) below background level. Positive (+)=MFI>3× background level.

[3] = tested on: cynomolgus ABCC4; test: Flow cytometry (FACS) binding to C6 cells stably transfected to express cynomolgus ABCC4 (Table 3 study); set-up: key to Cynomolgus ABCC4 binding: Negative (−) is defined as maximum response (Rmax(MFI)) below background level; Positive (+) is defined as MFI>1000; details: for Cynomolgus ABCC4 binding: C6 cells stably transfected to express cynomolgus ABCC4, FACS, Table 3; for binding to cynomolgus ABCC4 expressed on cell surface: Table 3 study, stated in words
Description: as §1, §2, §3, §4

[4] = tested on: cynomolgus ABCC4; test: Flow cytometry (FACS) binding to C6 cells stably transfected to express cynomolgus ABCC4 (different experiment, different C6.cC4 cell line, Table 4); set-up: key to Cynomolgus ABCC4 binding: Negative (−)=Rmax (MFI) below background level; Positive (+)=MFI>3× background level; details: for binding to cynomolgus ABCC4 expressed on cell surface: Table 4 study, stated in words; for Cynomolgus ABCC4 binding: different C6.cC4 cell line, C6 cells stably transfected to express cynomolgus ABCC4, FACS, Table 4
Description: as §1, §2, §3, §5

B1: C4.886: anti-ABCC4 antibody raised in rats; VH SEQ ID NO: 2, VL SEQ ID NO: 125 (antibody, V domains shown)
VH: EVKLLESGGDLLQPGRSLKLSCAASGFTFNDYNMAWVRQAPKKGLQWVATILYDGSRTYYRDSVKGRFTISRDNSKSTLYLQMDSLRSEDTATYYCTTEFGYGSSHWFACWGQGTLVTVSS
VL: DVVLTQTPVSLPVSLGGQASISCRSSQSLVHSNGNTYLHWYLQKPGQSPQLLISRISNRFSGVPDRFSGSGSGTDFTLKISRVEPEDLGDYYCFQSTHFPHTFGAGTKLEIK
Human ABCC4 binding [1]: + (Positive (+) is defined as MFI>1000)
Human ABCC4 binding [2]: + (Positive (+)=MFI>3× background level)
binding to human ABCC4 expressed on cell surface [2]: bind to both human and cynomolgus ABCC4
Cynomolgus ABCC4 binding [3]: −
binding to cynomolgus ABCC4 expressed on cell surface [4]: bind to both human and cynomolgus ABCC4
Cynomolgus ABCC4 binding [4]: + (Positive (+)=MFI>3× background level)

B4: C4.961: anti-ABCC4 antibody raised in rats; VH SEQ ID NO: 9, VL SEQ ID NO: 130 (antibody, V domains shown)
VH: EVQLKESGPGLVQPSQTLSLTCAVSGFSLTNYHVHWVRQPPGKGLEWMGVMWSDGDTSYNSALKSRLSISRDTSKSQFFLKMNSLQTEDTATYYCARGGVYFDYWGQGASVTVSS
VL: DIVMTQSPSSLAVSAGETVTINCKSSQSLLYSGNQKNSLAWYQQKPGQSPKLLIYWASTRQSGVPDRFIGSGSGTDFTLTFSSVQAEDLAIYYCQHYFDTPYTFGAGTKLELK
Human ABCC4 binding [1]: + (Positive (+) is defined as MFI>1000)
binding to human ABCC4 expressed on cell surface [1]: bind to both human and cynomolgus ABCC4
Human ABCC4 binding [2]: + (Positive (+)=MFI>3× background level)
binding to human ABCC4 expressed on cell surface [2]: bind to both human and cynomolgus ABCC4
Cynomolgus ABCC4 binding [3]: + (Positive (+) is defined as MFI>1000)
binding to cynomolgus ABCC4 expressed on cell surface [3]: bind to both human and cynomolgus ABCC4
binding to cynomolgus ABCC4 expressed on cell surface [4]: bind to both human and cynomolgus ABCC4
Cynomolgus ABCC4 binding [4]: + (Positive (+)=MFI>3× background level)

Now from value to molecule, other results behind:

Human ABCC4 binding [2]: + (Positive (+)=MFI>3× background level)
B2: C4.927: anti-ABCC4 antibody raised in rats; VH SEQ ID NO: 4, VL SEQ ID NO: 127 (antibody, V domains shown)
VH: EVQLVESGPGLVQPSRTLSLTCTVSGFSLTSYGVSWVRQPPGKGLEWIAAIWSGGSTDYNSALKSRLSISRDTSKSQVLLKMNSLQTEDTAMYFCARGATEGIDYWGQGASVTVSS
VL: AIQVTQSPTSLSASLGDRVTLTCRASQDINNKMAWYQQKPGEVPQLLIYYASTLQSGTPSRFSGSGSGTDFSFTISHLQSEDFATYYCLQGYSLYTFGAGTKLELK
Cynomolgus ABCC4 binding [4]: −

Human ABCC4 binding [1]: + (Positive (+) is defined as MFI>1000)
binding to human ABCC4 expressed on cell surface [1]: bind to both human and cynomolgus ABCC4
Human ABCC4 binding [2]: + (Positive (+)=MFI>3× background level)
binding to human ABCC4 expressed on cell surface [2]: bind to both human and cynomolgus ABCC4
B3: C4.976: anti-ABCC4 antibody raised in rats; VH SEQ ID NO: 12, VL SEQ ID NO: 132 (antibody, V domains shown)
VH: EVKLLESGGGLVQPGRSLKVSCVASGFIFSDYYMAWVRQAPTKGLEWVAYINYDGGSTYYGDSVKGRFTISRDNAKSSLYLQMNSLRFEDMATYYCARRDYGSKFDYWGQGVMVTVSS
VL: EIVIIQSPALAVSLGQRATISCKTNQNVDYYGNSYIHWYQQKPGQQPKLLIYLASNLASGIPARFSGRGSGTDFTLTIDPVEADDPATYYCQQSRNLPFTFGSGTKLELK
Cynomolgus ABCC4 binding [3]: + (Positive (+) is defined as MFI>1000)
binding to cynomolgus ABCC4 expressed on cell surface [3]: bind to both human and cynomolgus ABCC4
binding to cynomolgus ABCC4 expressed on cell surface [4]: bind to both human and cynomolgus ABCC4
Cynomolgus ABCC4 binding [4]: + (Positive (+)=MFI>3× background level)
